Assay results from PMC3761943 (Cell, 2013).

What was measured:
[1] = molecular target: T1, kinesin-4ΔN (human kinesin-4, aa 733-1232) (human, UniProt O95239 733-1232); assay: pull-down
T1 sequence (looked up): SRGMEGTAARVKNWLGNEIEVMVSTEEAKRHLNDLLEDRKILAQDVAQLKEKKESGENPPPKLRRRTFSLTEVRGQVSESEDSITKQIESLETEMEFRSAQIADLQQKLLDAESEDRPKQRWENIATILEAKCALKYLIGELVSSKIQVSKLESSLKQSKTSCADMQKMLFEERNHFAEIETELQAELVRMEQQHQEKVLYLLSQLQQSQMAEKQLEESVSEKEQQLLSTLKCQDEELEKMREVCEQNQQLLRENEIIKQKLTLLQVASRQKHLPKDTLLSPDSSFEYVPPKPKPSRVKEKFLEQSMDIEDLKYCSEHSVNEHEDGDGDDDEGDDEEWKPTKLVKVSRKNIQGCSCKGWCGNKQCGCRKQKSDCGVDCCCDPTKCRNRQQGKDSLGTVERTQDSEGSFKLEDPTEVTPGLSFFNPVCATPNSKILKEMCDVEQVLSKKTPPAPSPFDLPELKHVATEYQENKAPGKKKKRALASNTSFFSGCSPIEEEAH

[2] = molecular target: the molecule itself; assay: SEC

Kd [1]: 210 ± 10 nM
B1: PRC1ΔN1SΔC (human PRC1, aa 19-486) (domain or fragment, UniProt O43663 19-486, looked up)
chain: LNHLREIWELIGIPEDQRLQRTEVVKKHIKELLDMMIAEEESLKERLIKSISVCQKELNTLCSELHVEPFQEEGETTILQLEKDLRTQVELMRKQKKERKQELKLLQEQDQELCEILCMPHYDIDSASVPSLEELNQFRQHVTTLRETKASRREEFVSIKRQIILCMEALDHTPDTSFERDVVCEDEDAFCLSLENIATLQKLLRQLEMQKSQNEAVCEGLRTQIRELWDRLQIPEEEREAVATIMSGSKAKVRKALQLEVDRLEELKMQNMKKVIEAIRVELVQYWDQCFYSQEQRQAFAPFCAEDYTESLLQLHDAEIVRLKNYYEVHKELFEGVQKWEETWRLFLEFERKASDPNRFTNRGGNLLKEEKQRAKLQKMLPKLEEELKARIELWEQEHSKAFMVNGQKFMEYVAEQWEMHRLEKERAKQERQLKNKKQTETEMLYGSAPRTPSKRRGLAPNTPGKAR
stoichiometry N [2]: 2
